± gives the standard deviation of the averaged measurements.
B1: library; a variant is named by its letters at N, in order (parent)
chain: GCUGUCACCGGUGUAUUACCCUAGUGGUCGACCGGUCUGAUGAGUCUNNNNNNAGACGAAACAGC

Key:
hypoxanthine [1] = variants of: B1; assay: normalized RNA/DNA level with ligand (relative to sTRSVctl = 100) (log10 (% of sTRSVctl)); ligand: hypoxanthine (xanthine aptamer); higher = less ribozyme self-cleavage, higher mRNA level; details: ligand concentration (+) RNA-Seq: 5 mM, HEK293T, reporter: mCherry (pCS4076), ligand present: yes
Procedure, shortened: (§1)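 HEK293T cells were transfected with library plasmids carrying ribozyme switches linked to an mCherry reporter, or an eGFP reporter in some ligand experiments, at 4 µg per well of a 6-well plate, with any ligand added 1 h beforehand. After 72 h, total RNA was extracted with EDTA, reverse-transcribed, amplified, barcoded and sequenced. RNA level was defined as RNA reads over DNA reads, normalized to a spiked-in non-cleaving sequence or to the top-ranked sequences. That value was multiplied by 100 and converted to log10, the top set was 25 sequences, and only sequences with ≥100 DNA reads were retained.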

hypoxanthine [2] = variants of: B1; assay: normalized RNA/DNA level without ligand (relative to sTRSVctl = 100) (log10 (% of sTRSVctl)); ligand: hypoxanthine (xanthine aptamer); higher = less ribozyme self-cleavage, higher mRNA level; details: HEK293T, reporter: mCherry (pCS4076), ligand present: no
Procedure, shortened: as §1

For CGAUGC, the “normalized RNA/DNA level with ligand (log10)” value (hypoxanthine [1]) was 1.9 ± 0.07 and the “normalized RNA/DNA level without ligand (log10)” value (hypoxanthine [2]) was 1.829 ± 0.0038.

With ACUGGG the “normalized RNA/DNA level with ligand (log10)” value (hypoxanthine [1]) was 1.859 ± 0.0034 and the “normalized RNA/DNA level without ligand (log10)” value (hypoxanthine [2]) was 1.44 ± 0.086.

For ACUGGC, the “normalized RNA/DNA level with ligand (log10)” value (hypoxanthine [1]) was 1.96 ± 0.036 and the “normalized RNA/DNA level without ligand (log10)” value (hypoxanthine [2]) was 1.844 ± 0.016.

UGAGAC was tested, and the “normalized RNA/DNA level with ligand (log10)” value (hypoxanthine [1]) was 1.89 ± 0.024 and the “normalized RNA/DNA level without ligand (log10)” value (hypoxanthine [2]) was 1.83 ± 0.057.

For GGAAUC, the “normalized RNA/DNA level with ligand (log10)” value (hypoxanthine [1]) was 1.9 ± 0.035 and the “normalized RNA/DNA level without ligand (log10)” value (hypoxanthine [2]) was 1.81 ± 0.057.

GCUUAU was tested, and the “normalized RNA/DNA level with ligand (log10)” value (hypoxanthine [1]) was 1.98 ± 0.053 and the “normalized RNA/DNA level without ligand (log10)” value (hypoxanthine [2]) was 1.81 ± 0.019.

In the case of GCUUAC, the “normalized RNA/DNA level with ligand (log10)” value (hypoxanthine [1]) is reported as 1.918 ± 0.0079 and the “normalized RNA/DNA level without ligand (log10)” value (hypoxanthine [2]) is reported as 1.7 ± 0.11.

In the case of UGCACA, the “normalized RNA/DNA level with ligand (log10)” value (hypoxanthine [1]) is reported as 1.934 ± 0.019 and the “normalized RNA/DNA level without ligand (log10)” value (hypoxanthine [2]) is reported as 1.843 ± 0.0094.

With GCUUUU the “normalized RNA/DNA level with ligand (log10)” value (hypoxanthine [1]) was 1.96 ± 0.011 and the “normalized RNA/DNA level without ligand (log10)” value (hypoxanthine [2]) was 1.831 ± 0.01.

For CGAUCU, the “normalized RNA/DNA level with ligand (log10)” value (hypoxanthine [1]) was 1.95 ± 0.046 and the “normalized RNA/DNA level without ligand (log10)” value (hypoxanthine [2]) was 1.877 ± 0.0033.

CGAUCC was tested, and the “normalized RNA/DNA level with ligand (log10)” value (hypoxanthine [1]) was 2.013 ± 0.0062 and the “normalized RNA/DNA level without ligand (log10)” value (hypoxanthine [2]) was 1.898 ± 0.0043.

CGAUCG was tested, and the “normalized RNA/DNA level with ligand (log10)” value (hypoxanthine [1]) was 1.94 ± 0.027 and the “normalized RNA/DNA level without ligand (log10)” value (hypoxanthine [2]) was 1.84 ± 0.038.

CGAUCA was tested, and the “normalized RNA/DNA level with ligand (log10)” value (hypoxanthine [1]) was 1.9299 ± 0.00072 and the “normalized RNA/DNA level without ligand (log10)” value (hypoxanthine [2]) was 1.7 ± 0.048.

In the case of AGAGGC, the “normalized RNA/DNA level with ligand (log10)” value (hypoxanthine [1]) is reported as 1.987 ± 0.014 and the “normalized RNA/DNA level without ligand (log10)” value (hypoxanthine [2]) is reported as 1.86 ± 0.068.

AGAGGG was tested, and the “normalized RNA/DNA level with ligand (log10)” value (hypoxanthine [1]) was 1.837 ± 0.0044 and the “normalized RNA/DNA level without ligand (log10)” value (hypoxanthine [2]) was 1.44 ± 0.035.

In the case of CGCACA, the “normalized RNA/DNA level with ligand (log10)” value (hypoxanthine [1]) is reported as 1.92 ± 0.024 and the “normalized RNA/DNA level without ligand (log10)” value (hypoxanthine [2]) is reported as 1.738 ± 0.016.

With UCUUUC the “normalized RNA/DNA level with ligand (log10)” value (hypoxanthine [1]) was 2.01 ± 0.052 and the “normalized RNA/DNA level without ligand (log10)” value (hypoxanthine [2]) was 1.99 ± 0.068.

For UCUUUU, the “normalized RNA/DNA level with ligand (log10)” value (hypoxanthine [1]) was 1.95 ± 0.086 and the “normalized RNA/DNA level without ligand (log10)” value (hypoxanthine [2]) was 1.947 ± 0.0056.

UCUUUG was tested, and the “normalized RNA/DNA level with ligand (log10)” value (hypoxanthine [1]) was 1.95 ± 0.033 and the “normalized RNA/DNA level without ligand (log10)” value (hypoxanthine [2]) was 1.73 ± 0.043.

With UGAGGG the “normalized RNA/DNA level with ligand (log10)” value (hypoxanthine [1]) was 1.87 ± 0.036 and the “normalized RNA/DNA level without ligand (log10)” value (hypoxanthine [2]) was 1.514 ± 0.0058.

In the case of UGAGGU, the “normalized RNA/DNA level with ligand (log10)” value (hypoxanthine [1]) is reported as 1.94 ± 0.035 and the “normalized RNA/DNA level without ligand (log10)” value (hypoxanthine [2]) is reported as 1.665 ± 0.015.

UGAGGC was tested, and the “normalized RNA/DNA level with ligand (log10)” value (hypoxanthine [1]) was 1.94 ± 0.03 and the “normalized RNA/DNA level without ligand (log10)” value (hypoxanthine [2]) was 1.9 ± 0.079.

For AGAUUG, the “normalized RNA/DNA level with ligand (log10)” value (hypoxanthine [1]) was 1.88 ± 0.042 and the “normalized RNA/DNA level without ligand (log10)” value (hypoxanthine [2]) was 1.47 ± 0.022.

AGAUUA was tested, and the “normalized RNA/DNA level with ligand (log10)” value (hypoxanthine [1]) was 1.91 ± 0.024 and the “normalized RNA/DNA level without ligand (log10)” value (hypoxanthine [2]) was 1.8 ± 0.031.

In the case of AGAUUU, the “normalized RNA/DNA level with ligand (log10)” value (hypoxanthine [1]) is reported as 1.92 ± 0.021 and the “normalized RNA/DNA level without ligand (log10)” value (hypoxanthine [2]) is reported as 1.893 ± 0.011.

GCUUCU was tested, and the “normalized RNA/DNA level with ligand (log10)” value (hypoxanthine [1]) was 1.996 ± 0.0049 and the “normalized RNA/DNA level without ligand (log10)” value (hypoxanthine [2]) was 1.94 ± 0.058.

GCUUCC was tested, and the “normalized RNA/DNA level with ligand (log10)” value (hypoxanthine [1]) was 1.963 ± 0.0026 and the “normalized RNA/DNA level without ligand (log10)” value (hypoxanthine [2]) was 1.833 ± 0.012.

In the case of GCUUCA, the “normalized RNA/DNA level with ligand (log10)” value (hypoxanthine [1]) is reported as 1.966 ± 0.0076 and the “normalized RNA/DNA level without ligand (log10)” value (hypoxanthine [2]) is reported as 1.898 ± 0.011.

With GGAUAU the “normalized RNA/DNA level with ligand (log10)” value (hypoxanthine [1]) was 1.9 ± 0.023 and the “normalized RNA/DNA level without ligand (log10)” value (hypoxanthine [2]) was 1.78 ± 0.028.
